Data reported in patent publication US20260043046A1 (ADVERUM BIOTECHNOLOGIES, published 2026).

Experiments:
[1] = target: T1, human complement C3 (Cat: C2910, Sigma) (human, UniProt P01024 23-1663); test: BLI (Octet HTX, 25 °C), human IgG1 in buffer against human complement C3
T1 construct: Bought protein; Native C3 is a two-chain (beta/alpha) protein processed from one precursor, so it is written here as one natural entry; also called Complement component 3

[2] = target: T1, human complement C3 (Cat: C2910, Sigma); test: BLI (Octet HTX, 25 °C), HEK293 supernatant against human complement C3
Method: Supernatant from suspension HEK293 cells transfected with vector carrying gene encoding anti-C3 antibody (cell culture and transfection methods can be found in previous section) were used for kinetics analysis via Octet (BLI) to measure binding affinity to human complement C3 (Cat: C2910, Sigma). Binding experiments were performed on Octet HTX at 25° C. by LakePharma (Redwood City, CA). There were three test articles including products of pADV1176 (0.015 mg/mL), negative control (supernatant from untransfected cells) and positive control (human IgG1 in buffer—137 mM NaCl, 2.7 mM KCl, 10 mM Na₂HPO₄, 2 mM KH₂PO₄, pH 7.4, 0.98 mg/mL).

T1 sequence (P01024 23-1663 limits assumed): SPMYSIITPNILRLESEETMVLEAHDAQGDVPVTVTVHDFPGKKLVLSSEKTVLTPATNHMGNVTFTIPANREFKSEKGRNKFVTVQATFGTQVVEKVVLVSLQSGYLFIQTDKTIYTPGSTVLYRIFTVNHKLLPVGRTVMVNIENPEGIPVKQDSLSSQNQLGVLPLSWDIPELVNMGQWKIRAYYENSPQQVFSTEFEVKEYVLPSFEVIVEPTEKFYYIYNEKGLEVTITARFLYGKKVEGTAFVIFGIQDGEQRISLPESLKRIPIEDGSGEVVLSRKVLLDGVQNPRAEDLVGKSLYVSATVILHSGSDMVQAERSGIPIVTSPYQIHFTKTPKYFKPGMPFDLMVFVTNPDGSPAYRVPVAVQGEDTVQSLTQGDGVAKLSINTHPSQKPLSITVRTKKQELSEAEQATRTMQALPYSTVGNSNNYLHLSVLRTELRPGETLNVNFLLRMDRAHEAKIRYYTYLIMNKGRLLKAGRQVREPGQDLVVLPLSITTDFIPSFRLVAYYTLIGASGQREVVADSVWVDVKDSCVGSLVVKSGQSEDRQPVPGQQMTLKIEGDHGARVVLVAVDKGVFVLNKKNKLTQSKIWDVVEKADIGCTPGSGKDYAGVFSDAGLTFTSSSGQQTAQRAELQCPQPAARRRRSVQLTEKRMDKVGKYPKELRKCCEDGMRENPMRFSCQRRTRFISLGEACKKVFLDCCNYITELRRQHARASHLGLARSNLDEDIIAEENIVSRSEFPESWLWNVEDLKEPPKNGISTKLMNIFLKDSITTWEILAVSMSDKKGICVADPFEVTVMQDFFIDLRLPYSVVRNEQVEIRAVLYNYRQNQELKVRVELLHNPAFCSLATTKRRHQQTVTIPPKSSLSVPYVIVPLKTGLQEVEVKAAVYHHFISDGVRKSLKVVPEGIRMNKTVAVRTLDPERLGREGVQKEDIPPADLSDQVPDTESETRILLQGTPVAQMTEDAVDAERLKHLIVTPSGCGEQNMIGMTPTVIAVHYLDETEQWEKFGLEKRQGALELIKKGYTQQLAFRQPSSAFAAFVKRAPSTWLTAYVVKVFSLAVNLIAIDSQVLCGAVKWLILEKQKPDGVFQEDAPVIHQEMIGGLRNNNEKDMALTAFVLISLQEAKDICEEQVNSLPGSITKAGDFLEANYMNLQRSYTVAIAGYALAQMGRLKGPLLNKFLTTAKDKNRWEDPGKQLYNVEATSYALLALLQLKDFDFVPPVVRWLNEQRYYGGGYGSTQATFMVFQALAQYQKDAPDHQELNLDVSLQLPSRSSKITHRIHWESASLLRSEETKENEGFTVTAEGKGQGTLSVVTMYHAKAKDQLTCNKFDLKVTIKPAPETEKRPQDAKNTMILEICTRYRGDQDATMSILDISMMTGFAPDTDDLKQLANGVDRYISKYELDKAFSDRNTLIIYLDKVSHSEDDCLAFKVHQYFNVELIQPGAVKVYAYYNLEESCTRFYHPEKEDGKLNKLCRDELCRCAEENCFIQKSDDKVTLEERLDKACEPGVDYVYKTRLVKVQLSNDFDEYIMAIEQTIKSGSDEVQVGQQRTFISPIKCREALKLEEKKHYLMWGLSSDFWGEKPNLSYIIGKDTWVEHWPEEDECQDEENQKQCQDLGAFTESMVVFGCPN

Molecule | Kd [1] [nM] | koff [1] [s⁻¹] | kon [1] [M⁻¹ s⁻¹] | Kd [2] [nM] | koff [2] [s⁻¹] | kon [2] [M⁻¹ s⁻¹]
Positive control (human IgG1 in buffer, 0.98 mg/mL) (antibody) | 0.256 | 4.92e-05 | 193000 | – | – | –
Products of pADV1176 (anti-C3 antibody expressed from plasmid pADV1176 in suspension HEK293 cells) (antibody, human IgG1, kappa, V domains shown, Full-length humanized human IgG1, tested as unpurified HEK293 supernatant at 0.015 mg/mL; Two copies of each chain is inferred from 'full-length' IgG1; also called humanized anti-C3 antibody; products of AAV2.7m8-pADV1176) VH: QVQLVQSGAEVKKPGASVKVSCKASGYTFTDFYMDWVRQAPGQRLEWMGYIYPHNAGTTYNQQFTGRVTITVDKSASTAYMELSSLRSEDTAVYYCARRGGFDFDYWGQGTLVTVSS VL: DIQMTQSPSSLSASVGDRVTITCKASENVDTYVSWYQQKPGKAPKLLIYGASNRYTGVPSRFSGSGSGTDFTFTISSLQPEDIATYHCGQSHSYPLTFGQGTKLEIKR | – | – | – | 0.13 | 2.67e-05 | 206000
